The supplement of paper PMC10126150
± gives the standard deviation of the averaged measurements.

system: ATP; test: switch fluorescence ratio, 500 uM ATP over buffer (Cy3 cluster intensity, sum of 5 cycles each) (fold (ratio)); higher = stronger signal-on switching upon ATP binding; sequences stand for … in TCGTCGGCAGCGTCAGATGTGTATAAGAGACAGTTTTTTTTTTTTTTTTTTTTTTTTT…TC; conditions: aptamer strand: ATP DNA aptamer (quencher-CACCTGGGGGAGTATTGCGGAGGAAGG + anchor), 100 nM annealed; ATP concentration: 500 uM
Method in brief: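 After annealing to 100 nM quencher-labelled ATP aptamer, Cy3-labelled switching-strand clusters on a modified Illumina MiSeq flow-cell were imaged in selection buffer. A second image followed after 15 min with 500 uM ATP at 22 °C, and five such buffer/ATP cycles were done, each separated by NaOH stripping and re-annealing. The fluorescence ratio, averaged per switch-domain sequence, is summed target-cycle over summed buffer-cycle Cy3 intensity per cluster, with clusters outside 100-1000 RFU excluded.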
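Note: ATP exposure 15 min at 22 °C before imaging.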

Row | Sequence | switch fluorescence ratio
1 | TTTTTACGGG | 1.02 ± 0.043
2 | AGGGAAAAGG | 1.02 ± 0.031
3 | TGAGTGAATG | 0.9787 ± 0.0042
4 | TTAAGGATGT | 1 ± 0.014
5 | GGGTGACAAT | 1 ± 0.04
6 | CCCCTTTATT | 1.01 ± 0.057
7 | TTGTGGTCGG | 0.982 ± 0.036
8 | GGTACGGAAA | 1.02 ± 0.016
9 | TTGTGGAGAA | 1.04 ± 0.072
10 | ATTACTGTGC | 0.94 ± 0.02
11 | CATTTATAAT | 1.03 ± 0.02
12 | GGTGGTGGCT | 1.04 ± 0.079
13 | CGGGTGAGTA | 1.05 ± 0.08
14 | GAGTAGTGTT | 0.984 ± 0.02
15 | TTGGATGTTG | 1.01 ± 0.034
16 | CTTACAGCTA | 1.097 ± 0.0016
17 | CGGTCCAATC | 1.37 ± 0.052
18 | CTTGTCTTAA | 1.02 ± 0.029
19 | CGGGGGTAGT | 1.03 ± 0.015
20 | TCCGTGCAAG | 3.03 ± 0.48
21 | CCAGTACCTT | 1.09 ± 0.03
22 | TAAATGGGTG | 1.03 ± 0.028
23 | ATGATGCGTG | 0.981 ± 0.015

Row | Sequence | switch fluorescence ratio
24 | ACCCATGAAG | 0.989 ± 0.015
25 | AACTGGGGAT | 0.9809 ± 0.0018
26 | TATAAATGTT | 0.9936 ± 0.0065
27 | TATTTTTTCT | 0.994 ± 0.045
28 | GGAAAGACGA | 1.01 ± 0.016
29 | ATGATTAATT | 1.03 ± 0.017
30 | GGCTGGCAGC | 1 ± 0.016
31 | TTTCACATGG | 1.052 ± 0.0044
32 | GAGTTGTGCC | 1.1 ± 0.032
33 | AACATAGGTC | 1.06 ± 0.04
34 | ATGTACGATA | 1.14 ± 0.043
35 | CCAGGAACGA | 0.986 ± 0.028
36 | ATGCACGGGC | 1.01 ± 0.047
37 | CAGCAACGTA | 1.05 ± 0.025
38 | AAGGAATAGC | 1.044 ± 0.002
39 | ACGTGATTTT | 1.09 ± 0.065
40 | TTTATTAGAT | 0.982 ± 0.022
41 | TGTGTTTACC | 1.01 ± 0.043
42 | GGTGATGTTG | 0.9611 ± 0.0055
43 | TGGATGTATT | 1.28 ± 0.4
44 | GGGTAGGGCC | 1.026 ± 0.0023
45 | GATGAGGATG | 0.987 ± 0.014
46 | TATCGGGGCA | 0.9622 ± 0.007

Row | Sequence | switch fluorescence ratio
47 | TGTTTTTATC | 0.992 ± 0.013
48 | AGGGAAGAAC | 1.006 ± 0.0073
49 | GATTAGGCAT | 0.996 ± 0.039
50 | TGGGAGGGGT | 1.01 ± 0.014
51 | GTTTGGCGTA | 0.967 ± 0.015
52 | GCCACACTAG | 1.06 ± 0.032
53 | ATGTGATGAA | 0.973 ± 0.019
54 | CAAGGTTTAC | 0.9881 ± 0.00047
55 | CTATGTAAAT | 1.01 ± 0.031
56 | GTAAAGGGGA | 1.03 ± 0.044
57 | TGGGCGGTCT | 1.03 ± 0.039
58 | TAATTGGGTT | 1 ± 0.019
59 | GGGAAATTGA | 1.01 ± 0.031
60 | GACATTTTGC | 1.05 ± 0.028
61 | GGGGGCATCG | 1.01 ± 0.018
62 | GAAGAAAACA | 0.955 ± 0.089
63 | GATGGGGTGG | 1 ± 0.016
64 | CCAACGGGGG | 1.061 ± 0.0019
65 | TATTAGAACT | 1.017 ± 0.0064
66 | ATGGGAAACG | 0.995 ± 0.014
67 | TTGGAGAGAA | 0.974 ± 0.022
68 | AAGTAACGGT | 1.02 ± 0.047
69 | GGGGACCTTA | 0.993 ± 0.028

Row | Sequence | switch fluorescence ratio
70 | TATTTGTGGG | 0.9845 ± 0.0083
71 | TGCATTAATG | 0.989 ± 0.012
72 | TTCTTTATGT | 0.999 ± 0.021
73 | TTGTTTTGAG | 0.994 ± 0.013
74 | AAAGAGGAGA | 1.02 ± 0.023
75 | ACCCTTATAG | 1.018 ± 0.0093
76 | GGATTTGTGT | 1.01 ± 0.034
77 | AGGGGCTTTG | 1.03 ± 0.032
78 | GACTAAGTTT | 1.018 ± 0.0076
79 | TTAGGAAGAC | 2.27 ± 1.4
80 | GATAGGGTAC | 1.0351 ± 0.0001
81 | GGGGAAGAAC | 1.14 ± 0.18
82 | TTGAATTAAC | 1.03 ± 0.06
83 | TCGGAACTTG | 1.01 ± 0.07
84 | TAAGGGTAAT | 0.973 ± 0.046
85 | GTTATAAGTG | 0.9924 ± 0.0054
86 | TGGGAGTGGG | 0.983 ± 0.019
87 | TTATCATTTA | 1.01 ± 0.03
88 | GAAGTAAGGA | 1.01 ± 0.074
89 | CTAGTCACGT | 1.003 ± 0.0031
90 | TATTTTTCTT | 0.975 ± 0.041
91 | GAGGTTGTCA | 0.958 ± 0.038
92 | GAGGGGGATC | 1.02 ± 0.035

Row | Sequence | switch fluorescence ratio
93 | TCGGTCATGG | 0.993 ± 0.023
94 | ATTGTGGAGC | 1.04 ± 0.061
95 | CCTGCGTCTG | 1.9 ± 0.065
96 | CGGCTTGGTG | 0.996 ± 0.048
97 | GTATTATCTG | 0.9495 ± 0.0038
98 | CCTTATTAGG | 1.002 ± 0.0075
99 | AGATAGGGAG | 0.9786 ± 0.0031
100 | TTAGATTTAA | 0.998 ± 0.013
101 | CATTTTTGGG | 0.98798 ± 0.00089
102 | GAGGTTATTG | 0.99 ± 0.025
103 | GAATGTGCAT | 1.05 ± 0.047
104 | GTTCGAACGA | 0.9856 ± 0.001
105 | TTAATCTACT | 1.01 ± 0.015
106 | GTTTGATGTC | 1 ± 0.1
107 | GTGATTGGGG | 0.97 ± 0.028
108 | ATATAGGGGA | 1.02 ± 0.051
109 | GTGGTGTAAT | 0.992 ± 0.0023
110 | GTTTATTGGC | 0.995 ± 0.019
111 | GAGTGCTATT | 0.981 ± 0.013
112 | TAATCGGGGT | 0.978 ± 0.038
113 | GGGTTGATGC | 1.02 ± 0.041
114 | GACATAAATG | 1.03 ± 0.12
115 | ATGGGAATTT | 0.996 ± 0.028

Row | Sequence | switch fluorescence ratio
116 | TAGGATAGGG | 0.9972 ± 0.0021
117 | TCGGTTCTAC | 0.9985 ± 0.0099
118 | AAAAGTGTTG | 0.948 ± 0.03
119 | CACAAAAATT | 1.01 ± 0.024
120 | TCTCATAGTA | 0.997 ± 0.047
121 | GCAAGCTGGG | 1.01 ± 0.014
122 | GTCGGCAGGG | 1.06 ± 0.014
123 | TAATGGGGAC | 0.967 ± 0.03
124 | CGTCCTTTTT | 1.05 ± 0.039
125 | TTTTGGGACC | 0.992 ± 0.037
126 | TTGTATTAGT | 0.9835 ± 0.0093
127 | GTTTATAATG | 0.986 ± 0.02
128 | TATAGGAGGT | 0.987 ± 0.062
129 | GTGTTTAACC | 0.984 ± 0.021
130 | ATGTGAGGGA | 0.991 ± 0.02
131 | GTTGTTAAGG | 0.996 ± 0.014
132 | TGGGGCTTTG | 1.03 ± 0.026
133 | CGCGGGGGGG | 1 ± 0.025
134 | TTAGACTTAT | 1.01 ± 0.021
135 | TATACGTGGG | 1.03 ± 0.046
136 | AGACACTTAA | 1.04 ± 0.023
137 | ACTTATGTTG | 0.995 ± 0.024
138 | ACCATCAAGG | 0.9815 ± 0.0016

Row | Sequence | switch fluorescence ratio
139 | ACTCGAGGGG | 1.01 ± 0.041
140 | ATTGAGGGGA | 0.994 ± 0.032
141 | TTAACGGGTT | 1.02 ± 0.037
142 | GTTTAATGGT | 0.9852 ± 0.009
143 | TGTTATAAAC | 1.02 ± 0.017
144 | ACGTAGAATG | 1.06 ± 0.015
145 | CAGCAGGGGG | 1.07 ± 0.068
146 | AACCCATTTG | 1.29 ± 0.48
147 | AATCTGCTCG | 0.9864 ± 0.002
148 | TGGGGGGTCC | 1.01 ± 0.039
149 | GTAGCTGGGG | 0.98 ± 0.011
150 | GGGGATGTGT | 1 ± 0.035
151 | TTTGTAGACG | 1.04 ± 0.062
152 | GTGTCTGGGG | 0.9858 ± 0.0076
153 | CAGGTTGTTC | 1.005 ± 0.0011
154 | AGTTAATTGA | 0.9704 ± 0.0093
155 | TTGGTCTATG | 0.986 ± 0.027
156 | GGGGTTATGG | 0.984 ± 0.041
157 | TGCGCCGTGG | 1.02 ± 0.02
